Results: patent US20180320138

Key:
[1] = test system: PKLR TALEN left subunit (synthetic construct (Xanthomonas TALE-FokI)?); experiment: cell_activity; conditions: PKD2iPSC, with right subunit; 31% in PKD3iPSC; cleavage also seen by Surveyor assay
[2] = test system: PKLR TALEN right subunit (synthetic construct (Xanthomonas TALE-FokI)?); experiment: cell_activity; conditions: PKD2iPSC, with left subunit; 31% in PKD3iPSC; cleavage also seen by Surveyor assay

Row | Sequence | TALEN cleavage efficiency [1] | TALEN cleavage efficiency [2]
1 | TGATCGAGCCACTGTACTCCAGCCTAGGTGACAGACGAGACCCTAGAGA (double strand) [PKLR intron 2 TALEN target, left half-site] | 40% | –
2 | TGATCGAGCCACTGTACTCCAGCCTAGGTGACAGACGAGACCCTAGAGA (double strand) [PKLR intron 2 TALEN target, right half-site] | – | 40%
